Test results as given in the supplement of paper PMC9732359.
± gives the uncertainty stated by the source.

Experiment: protein stability index of a GFP-peptide fusion (yeast GPS) (PSI 1-4); higher = more stable; sorted into four equal gates, so the index is relative within each strain
In short: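 Peptides tiling yeast proteins in 17-residue segments were fused downstream of GFP, with Cherry expressed from the same plasmid. As a pooled library in yeast, mid-log cultures grown in leucine-free medium were sorted into four equal gates by GFP/Cherry fluorescence ratio. Gate plasmids were PCR-amplified and Illumina-sequenced, and barcodes linked reads to strains. Each peptide received a protein stability index equal to the sum of each gate's read frequency times its gate number.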

Sequence | protein stability index (doa10∆) | protein stability index (pdr5∆) | protein stability index (san1∆) | protein stability index (ubr1∆)
GMNNASAGLFGSKPAGG [YGL172W/NUP49] | 3.23 ± 0.086 | 3.32 ± 0.086 | 2.96 ± 0.09 | 3.23 ± 0.053
QKMAKAKKQNRPLPQWI [RPL39] | 2.97 ± 0.13 | 3.07 ± 0.057 | 3 ± 0.081 | 3.14 ± 0.059
ELPLLSPERFATLGIDP [RPT1] | 2.41 ± 0.13 | 2.75 ± 0.18 | 3.27 ± 0.16 | 2.52 ± 0.19
DEVTIRRTVGLKKDDYQ [SMC3] | 2.66 ± 0.12 | 2.53 ± 0.099 | 2.32 ± 0.13 | 2.35 ± 0.071
PKFAIQDNHHITKVTEN [YMR129W/POM152] | 2.83 ± 0.052 | 2.88 ± 0.058 | 2.75 ± 0.04 | 3.09 ± 0.041
FDVMIDEESLVKYMPEQ [RPO21] | 2.3 ± 0.15 | 2.04 ± 0.16 | 1.86 ± 0.26 | 2.13 ± 0.058
SKICLSHFSLDQFITSL [ITC1] | 2.21 ± 0.06 | 2.86 ± 0.076 | 2.17 ± 0.081 | 2.69 ± 0.057
ADVTSNIDSSAQFTFGK [YOR098C/NUP1] | 3.05 ± 0.093 | 3.25 ± 0.087 | 2.89 ± 0.091 | 3.13 ± 0.057
LASFEKTTDHLFDAAFY [RPO31] | 2.9 ± 0.058 | 2.79 ± 0.046 | 2.96 ± 0.05 | 3 ± 0.043
GFKWLNKLDEYHGLYTN [LIN1] | 1.81 ± 0.056 | 1.79 ± 0.056 | 1.88 ± 0.056 | 1.67 ± 0.068
LGNHAITIDSVVDANGC [YMR129W/POM152] | 2.42 ± 0.096 | 1.95 ± 0.08 | 2.56 ± 0.07 | 2.79 ± 0.085
VAFDNINTHIETLAYNS [SNF2] | 2.56 ± 0.1 | 2.85 ± 0.074 | 2.5 ± 0.063 | 1.99 ± 0.058
DSEIEISSEKLLTLTNA [RPP1A] | 2.99 ± 0.063 | 2.92 ± 0.073 | 2.93 ± 0.061 | 3.12 ± 0.055
PNFLGNCNIKDFKPPYI [SWP82] | 2.62 ± 0.048 | 2.64 ± 0.041 | 2.61 ± 0.054 | 2.65 ± 0.031
FGGSQPNSGTATTGGFG [YGR119C/NUP57] | 2.98 ± 0.2 | 3.05 ± 0.12 | 3.15 ± 0.18 | 3.4 ± 0.2
EIFQLFTNPSVDIQIIN [SWI1] | 2.69 ± 0.081 | 2.88 ± 0.09 | 2.55 ± 0.078 | 2.54 ± 0.064
LNESDCLEACSFILSSL [YDL116W/NUP84] | 2.62 ± 0.056 | 2.58 ± 0.052 | 2.96 ± 0.052 | 2.65 ± 0.041
KTRKTYCKGKTCRKHTQ [RPL42A] | 2.45 ± 0.068 | 1.69 ± 0.068 | 2.75 ± 0.072 | 2.06 ± 0.043
FYDIRSLLERHIPRLIP [YJL039C/NUP192] | 2.79 ± 0.049 | 2.46 ± 0.046 | 2.2 ± 0.048 | 2.77 ± 0.055
KEKKELQMRLKESEISH [YIL149C/MLP2] | 2.6 ± 0.22 | 2.94 ± 0.17 | 3.04 ± 0.17 | 3.04 ± 0.15
AIGYEPLSLTHRDKNKM [DIS3] | 2.83 ± 0.058 | 2.9 ± 0.061 | 2.88 ± 0.063 | 2.93 ± 0.042
LNVAEIITSGRDTREVL [ARP9] | 3.35 ± 0.14 | 3.25 ± 0.089 | 3.44 ± 0.051 | 3.43 ± 0.081
TVLADEFIAHRLGLIPL [RPB3] | 2.4 ± 0.087 | 2.16 ± 0.12 | 2.96 ± 0.047 | 3.12 ± 0.071
NKNGNAVCSTATVVSTN [PGD1] | 2.77 ± 0.059 | 2.83 ± 0.061 | 2.3 ± 0.073 | 2.81 ± 0.053
SDIESLEALMDILLCYQ [SRB8] | 2.84 ± 0.13 | 2.74 ± 0.2 | 3.03 ± 0.19 | 2.29 ± 0.2
KNGTIVKKAVTVHSKSR [RPL19A] | 2.44 ± 0.068 | 2.8 ± 0.068 | 2.45 ± 0.079 | 1.96 ± 0.068
